Data on one substance can be found in publication PMC12484072.

The assay deals with SaNsrP, transmembrane permease of the BceAB-type ABC transporter SaNsrFP from Streptococcus agalactiae (S. agalactiae). The assay can be described thus: SAXS.

Usually stoichiometry N stands for the number of molecules, sites or subunits per partner or assembly. Substance “SaNsrF, nucleotide-binding domain of the BceAB-type ABC transporter SaNsrFP from Streptococcus agalactiae (natural protein)” returned a stoichiometry N of 2.
